For data set [1], the target named is T1, R.PabI Y68F R70D D71R (Pyrococcus abyssi, UniProt Q9V2B6 8-226, Y68F;R70D;D71R).
T1 sequence: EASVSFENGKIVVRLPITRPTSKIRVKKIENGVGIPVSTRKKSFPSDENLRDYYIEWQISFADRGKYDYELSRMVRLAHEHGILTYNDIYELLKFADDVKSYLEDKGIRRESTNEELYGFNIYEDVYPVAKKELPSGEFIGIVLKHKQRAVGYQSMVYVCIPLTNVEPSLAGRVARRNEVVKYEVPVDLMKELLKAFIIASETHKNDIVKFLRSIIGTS
Briefly: EMSA; similar to Y68F; poly-dT competitor; EMSA: 0.1 uM DNA, 0.1-12.8 uM R.PabI dimer, 10 mM MES pH 6.0, 300 mM NaCl, 50 uM poly-dT (40 nt) competitor, 30 min at 4 C; 12% PAGE in 0.5x TBE at 4 C. The conditions noted are these: protein: recombinant; chain copies: 4; label: 5'-fluorescein; blunt; self-complementary, 2 copies of S1.

The target in data set [2] is T2, R.PabI Y68F R70D (Pyrococcus abyssi, UniProt Q9V2B6 8-226, Y68F;R70D).
T2 sequence: T1 sequence with R64D
Briefly: EMSA; supershift only, about the same as Y68F; poly-dT competitor; EMSA: 0.1 uM DNA, 0.1-12.8 uM R.PabI dimer, 10 mM MES pH 6.0, 300 mM NaCl, 50 uM poly-dT (40 nt) competitor, 30 min at 4 C; 12% PAGE in 0.5x TBE at 4 C. The conditions noted are these: protein: recombinant; chain copies: 4; label: 5'-fluorescein; blunt; self-complementary, 2 copies of S1.

The target in data set [3] is T3, R.PabI Y68F (Pyrococcus abyssi, UniProt Q9V2B6 8-226, Y68F).
T3 sequence: T1 sequence with D63R, R64D
Put plainly: EMSA; predominant supershift (tetramer), dimer band very weak; poly-dT competitor; EMSA: 0.1 uM DNA, 0.1-12.8 uM R.PabI dimer, 10 mM MES pH 6.0, 300 mM NaCl, 50 uM poly-dT (40 nt) competitor, 30 min at 4 C; 12% PAGE in 0.5x TBE at 4 C. The conditions noted are these: protein: recombinant; chain copies: 2; label: 5'-fluorescein; blunt; self-complementary, 2 copies of S1. A general note: In EMSA bound probe runs differently from free probe, usually more slowly.

The target of data set [4] is T4, R.PabI Y68F D71R (Pyrococcus abyssi, UniProt Q9V2B6 8-226, Y68F;D71R).
T4 sequence: T1 sequence with D63R
Put plainly: EMSA; dimer shift at 0.2-1.6 uM plus supershift; tetramerization inhibited; poly-dT competitor; EMSA: 0.1 uM DNA, 0.1-12.8 uM R.PabI dimer, 10 mM MES pH 6.0, 300 mM NaCl, 50 uM poly-dT (40 nt) competitor, 30 min at 4 C; 12% PAGE in 0.5x TBE at 4 C. The conditions noted are these: protein: recombinant; chain copies: 2; label: 5'-fluorescein; blunt; self-complementary, 2 copies of S1.

The target of data set [5] is T3, R.PabI Y68F. Briefly: EMSA; dimer shift at low concentration, supershift at high; poly-dT competitor; EMSA: 0.1 uM DNA, 0.1-12.8 uM R.PabI dimer, 10 mM MES pH 6.0, 300 mM NaCl, 50 uM poly-dT (40 nt) competitor, 30 min at 4 C; 12% PAGE in 0.5x TBE at 4 C. To be noted: protein: recombinant; chain copies: 2; label: 5'-fluorescein; blunt; self-complementary, 2 copies of S3.

Data set [6] has as its target T3, R.PabI Y68F. Put plainly: EMSA; about the same binding as co-crystallization DNA; poly-dT competitor; EMSA: 0.1 uM DNA, 0.1-12.8 uM R.PabI dimer, 10 mM MES pH 6.0, 300 mM NaCl, 50 uM poly-dT (40 nt) competitor, 30 min at 4 C; 12% PAGE in 0.5x TBE at 4 C. To be noted: protein: recombinant; chain copies: 2; label: 5'-fluorescein; blunt; self-complementary, 2 copies of S2.

In data set [7] the target is T5, R.PabI R32A E63A (Pyrococcus abyssi, UniProt Q9V2B6 8-226, R32A;E63A).
T5 sequence: T1 sequence with R25A, E56A, F61Y, D63R, R64D
Briefly: X-ray crystallography; 1.9 A; tetramer sandwiches dsDNA; 0.2 M calcium acetate, 0.1 M imidazole pH 8.0, 10% PEG8000; EMSA: 0.1 uM DNA, 0.1-12.8 uM R.PabI dimer, 10 mM MES pH 6.0, 300 mM NaCl, 50 uM poly-dT (40 nt) competitor, 30 min at 4 C; 12% PAGE in 0.5x TBE at 4 C. To be noted: protein: recombinant; chain copies: 4; blunt; self-complementary, 2 copies of S1.

Data on four molecules can be found in paper PMC5059719, “Tetrameric structure of the restriction DNA glycosylase R.PabI in complex with nonspecific double-stranded DNA” (Scientific Reports, 2016).

Numbering of substitutions follows the chain as printed.

B1: 20 bp nonspecific probe (same sequence as co-crystallization) (dsDNA)
DNA 1: GCACTAGTTCGAACTAGTGC
DNA 2: GCACTAGTTCGAACTAGTGC
Take B1: the binding result in data set [1], in data set [2], in data set [3] and in data set [4] was “binds” in each case.

B2: 20 bp specific probe (GTAC) (dsDNA)
DNA 1: GCATAGCTGTACAGCTATGC
DNA 2: GCATAGCTGTACAGCTATGC
As for B2, in data set [5], the binding result is listed as “binds”.

B3: 20 bp nonspecific probe without GT, TA, AC steps (dsDNA)
DNA 1: GCATCGATTCGAATCGATGC
DNA 2: GCATCGATTCGAATCGATGC
Turning to B3, the binding result in data set [6] is “binds”.

B4: 20 bp nonspecific dsDNA (co-crystallization) (dsDNA)
DNA 1: GCACTAGTTCGAACTAGTGC
DNA 2: GCACTAGTTCGAACTAGTGC
Consider B4, for which the binding result in data set [7] is given as “binds”.
